This is an account of results in article PMC10354202.

In assay [1] the target is actin from rabbit skeletal muscle (rabbit) (UniProt P68135).
Assay [2] deals with (Ig32)2-(R3^IVVI)-(Ig32)2 polyprotein, talin R3 domain with the IVVI mutation. Nature of the assay: single-molecule magnetic tweezers; talin R3 polyprotein tethered between glass and bead; vinculin in solution (20 nM FLV); constant higher forces (12.5 pN, 15 pN; above ~10 pN), reversible binding and unbinding steps; unbinding rates against force fitted to the Bell-Evans model; PBS with 10 mM ascorbic acid, pH 7.3.

For assay [3] the target is unchanged. The assay can be described thus: single-molecule magnetic tweezers; talin R3 polyprotein tethered between glass and bead; vinculin allowed to bind at 8.5 pN for a variable time, then a 40 pN pulse to force dissociation; unbinding times at 40 pN (square-root histogram); PBS with 10 mM ascorbic acid, pH 7.3.
Assay [4] has the same target. Nature of the assay: single-molecule magnetic tweezers; talin R3 polyprotein tethered between glass (HaloTag) and streptavidin-coated bead (biotinylated AviTag); vinculin in solution (20 nM FLV); constant low force (~8.5 pN, up to ~9-10 pN); PBS with 10 mM ascorbic acid, pH 7.3; Kd from the paper's kinetic model.
Assay [5] shares this target. The assay can be described thus: magnetic tweezers. As to conditions: parent: est. 9 s, read off a plot.

Sequence of full-length human vinculin, wild type (P18206 other isoform, or with tags, fused parts or gaps): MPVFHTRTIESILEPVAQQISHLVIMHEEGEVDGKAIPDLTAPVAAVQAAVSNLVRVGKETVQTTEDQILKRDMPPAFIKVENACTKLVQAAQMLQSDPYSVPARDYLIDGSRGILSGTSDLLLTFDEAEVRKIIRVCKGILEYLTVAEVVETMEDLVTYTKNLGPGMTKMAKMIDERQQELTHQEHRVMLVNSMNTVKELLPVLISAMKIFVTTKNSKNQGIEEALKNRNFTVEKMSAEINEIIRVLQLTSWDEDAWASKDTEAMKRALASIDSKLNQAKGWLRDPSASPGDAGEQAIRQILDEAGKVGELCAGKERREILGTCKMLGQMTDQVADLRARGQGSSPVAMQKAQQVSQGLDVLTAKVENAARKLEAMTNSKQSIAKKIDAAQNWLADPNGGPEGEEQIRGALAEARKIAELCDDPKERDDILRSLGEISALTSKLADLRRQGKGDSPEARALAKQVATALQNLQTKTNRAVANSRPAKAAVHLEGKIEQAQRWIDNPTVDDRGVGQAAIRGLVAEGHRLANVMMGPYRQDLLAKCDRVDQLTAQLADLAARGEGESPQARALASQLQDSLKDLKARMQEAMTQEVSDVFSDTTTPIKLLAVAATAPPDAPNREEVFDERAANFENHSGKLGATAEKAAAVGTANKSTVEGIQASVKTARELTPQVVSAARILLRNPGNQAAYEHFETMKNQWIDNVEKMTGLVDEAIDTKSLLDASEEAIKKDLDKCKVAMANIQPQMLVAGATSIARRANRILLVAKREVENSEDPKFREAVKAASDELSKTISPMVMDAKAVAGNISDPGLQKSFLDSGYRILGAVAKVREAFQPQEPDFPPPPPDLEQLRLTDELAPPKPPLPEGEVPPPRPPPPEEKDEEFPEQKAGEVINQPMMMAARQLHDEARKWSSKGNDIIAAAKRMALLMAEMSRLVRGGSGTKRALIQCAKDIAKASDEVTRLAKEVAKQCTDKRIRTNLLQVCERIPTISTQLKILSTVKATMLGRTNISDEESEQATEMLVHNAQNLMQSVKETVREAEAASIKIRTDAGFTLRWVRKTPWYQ

For “full-length human vinculin K944A-R945A-D1013A-E1015A-E986A (5M) (from UniProt P18206-2 1-1066) (natural protein)”, the ratio of bundled actin of 5M against that of the 4M variant, TIRF microscopy, no talin-VBS1 in assay [1] is 1.4 fold over 4M.
For the substance “full-length human vinculin, wild type (from UniProt P18206-2 1-1066) (natural protein)”, in assay [2], the Kd, forces above ~10 pN worked out at 5 nM; the k0, intrinsic off-rate (Bell-Evans fit of the unbinding rates, zero force) is 0.0066 s⁻¹; the unbinding rate of Fig. 1G extrapolated to ~8.5 pN was 0.01 s⁻¹. Besides, in assay [3], the timescale of maturation from the weak to the stable bound state came out at 37 s; the unbinding time at 40 pN, stronger binding mode (t2) was 7.4 s; the unbinding time at 40 pN, weak binding mode (t1) was 0.4 s. In assay [4], this substance came in with a Kd, initial bound state, low forces (up to ~9-10 pN) of 0.2 nM; a Kd, mature bound state, low forces (up to ~9-10 pN) of 0.004 nM; a timescale of unbinding at ~8.5 pN of 1 hour.
On to “full-length human vinculin, wild type (from UniProt P18206-2) T12”, for which the other: average unbinding time at 40 pN in assay [5] turned out to be 20 s.
